Assay results from patent US20040005643A1.

Columns and labels:
human tenascin-C (human) [1] = target: human tenascin-C (human) (UniProt P24821); assay: BIAcore
human tenascin-C (human) [2] = target: human tenascin-C (human) (UniProt P24821); assay: ELISA, biotinylated antibody, 2-3 moles biotin/antibody
human tenascin-C (human) [3] = target: human tenascin-C (human) (UniProt P24821); assay: ELISA, biotinylated antibody, 7-10 moles biotin/antibody
human tenascin-C (human) [4] = target: human tenascin-C (human) (UniProt P24821); assay: ELISA, biotinylated antibody, 15-20 moles biotin/antibody
human tenascin-C (human) [5] = target: human tenascin-C (human) (UniProt P24821); assay: ELISA, biotinylated antibody, 3.5-5 moles biotin/antibody
human tenascin-C (human) [6] = target: human tenascin-C (human) (UniProt P24821); assay: immunoreactivity of the batch used for biodistribution, 7-10 biotins/mole

Sequence of human tenascin-C (human) (P24821 23-2201 limits assumed): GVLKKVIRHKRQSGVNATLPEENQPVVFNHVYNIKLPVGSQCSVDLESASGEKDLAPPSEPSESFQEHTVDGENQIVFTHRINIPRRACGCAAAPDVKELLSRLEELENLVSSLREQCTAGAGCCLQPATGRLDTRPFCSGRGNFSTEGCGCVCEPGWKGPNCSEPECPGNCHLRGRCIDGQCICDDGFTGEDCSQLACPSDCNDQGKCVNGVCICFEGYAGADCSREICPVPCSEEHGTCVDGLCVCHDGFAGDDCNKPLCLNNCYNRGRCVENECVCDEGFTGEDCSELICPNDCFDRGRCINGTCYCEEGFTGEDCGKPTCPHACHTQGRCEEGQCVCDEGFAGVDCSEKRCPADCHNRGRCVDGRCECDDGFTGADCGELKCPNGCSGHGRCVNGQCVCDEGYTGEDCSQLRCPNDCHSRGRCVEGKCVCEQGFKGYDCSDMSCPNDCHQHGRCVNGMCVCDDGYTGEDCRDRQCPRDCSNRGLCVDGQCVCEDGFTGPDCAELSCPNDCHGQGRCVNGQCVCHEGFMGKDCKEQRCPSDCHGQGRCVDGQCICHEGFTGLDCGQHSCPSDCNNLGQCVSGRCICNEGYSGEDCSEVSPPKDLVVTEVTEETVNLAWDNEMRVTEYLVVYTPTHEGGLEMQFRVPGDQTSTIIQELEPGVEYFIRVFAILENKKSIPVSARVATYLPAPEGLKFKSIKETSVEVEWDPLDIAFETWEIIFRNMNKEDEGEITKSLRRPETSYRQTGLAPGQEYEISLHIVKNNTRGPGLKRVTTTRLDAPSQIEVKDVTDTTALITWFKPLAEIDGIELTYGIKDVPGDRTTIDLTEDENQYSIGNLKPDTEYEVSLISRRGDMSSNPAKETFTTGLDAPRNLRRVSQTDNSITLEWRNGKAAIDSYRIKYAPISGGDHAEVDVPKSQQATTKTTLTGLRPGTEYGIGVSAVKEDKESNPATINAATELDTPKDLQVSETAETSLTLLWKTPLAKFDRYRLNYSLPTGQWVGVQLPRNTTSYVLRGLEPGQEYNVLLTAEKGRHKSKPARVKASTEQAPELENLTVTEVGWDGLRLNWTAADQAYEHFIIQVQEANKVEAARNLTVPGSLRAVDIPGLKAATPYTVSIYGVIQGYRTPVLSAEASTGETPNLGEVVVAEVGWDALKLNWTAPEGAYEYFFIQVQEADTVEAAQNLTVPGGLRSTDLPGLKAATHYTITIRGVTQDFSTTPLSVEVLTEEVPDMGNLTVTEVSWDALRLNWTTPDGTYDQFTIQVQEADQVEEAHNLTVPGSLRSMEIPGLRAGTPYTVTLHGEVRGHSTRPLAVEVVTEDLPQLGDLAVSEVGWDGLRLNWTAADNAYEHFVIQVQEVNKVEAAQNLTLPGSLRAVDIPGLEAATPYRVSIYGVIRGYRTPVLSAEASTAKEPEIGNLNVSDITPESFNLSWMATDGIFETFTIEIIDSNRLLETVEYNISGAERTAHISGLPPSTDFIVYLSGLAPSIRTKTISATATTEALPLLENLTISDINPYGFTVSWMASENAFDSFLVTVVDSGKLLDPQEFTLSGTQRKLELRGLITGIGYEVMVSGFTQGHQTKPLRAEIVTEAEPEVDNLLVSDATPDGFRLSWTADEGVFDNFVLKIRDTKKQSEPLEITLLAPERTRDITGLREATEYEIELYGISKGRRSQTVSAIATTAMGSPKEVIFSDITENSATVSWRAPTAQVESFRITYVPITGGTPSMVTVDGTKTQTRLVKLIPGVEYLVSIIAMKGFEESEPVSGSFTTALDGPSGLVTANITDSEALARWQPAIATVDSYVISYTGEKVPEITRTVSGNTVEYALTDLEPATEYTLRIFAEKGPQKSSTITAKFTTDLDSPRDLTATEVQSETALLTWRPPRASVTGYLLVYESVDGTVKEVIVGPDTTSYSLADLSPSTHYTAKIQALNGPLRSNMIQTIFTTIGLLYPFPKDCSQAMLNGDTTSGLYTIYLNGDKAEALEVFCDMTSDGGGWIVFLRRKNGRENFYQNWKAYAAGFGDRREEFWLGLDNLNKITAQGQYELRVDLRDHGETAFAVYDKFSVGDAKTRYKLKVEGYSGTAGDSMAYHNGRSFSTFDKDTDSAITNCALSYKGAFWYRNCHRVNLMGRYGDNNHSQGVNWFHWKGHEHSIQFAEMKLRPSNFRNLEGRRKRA

Kd (human tenascin-C (human) [1]) | % of Immunoreactivity (human tenascin-C (human) [2]) | % of Immunoreactivity (human tenascin-C (human) [3]) | % of Immunoreactivity (human tenascin-C (human) [4]) | % of Immunoreactivity (human tenascin-C (human) [5]) | immunoreactivity (human tenascin-C (human) [6]) | Substance
4.9 nM | – | – | – | – | – | BC4 anti-human tenascin monoclonal antibody
– | 82.4% | 67.2% | 12.6% | 74.4% | 80% | biotinylated BC4 (antibody)
